Results on one substance are retold here after paper PMC2768988.

Some results are limits rather than exact numbers.

Experiment [1] concerns the target Flrt1a ectodomain (zebrafish). Nature of the experiment: SPR; BIAcore, equilibrium analysis; biotinylated Flrt-Cd4d3+4-bio baits (about 1000 RU) on a streptavidin-coated chip, Cd4d3+4-bio as reference; purified monomeric Unc5b-Cd4d3+4-6His injected; HBS-EP, 28°C; purification of the Flrt baits not stated. Background: SPR reads the build-up and loss of mass on a sensor chip optically.

Experiment [2] concerns the target Flrt1b ectodomain (zebrafish). Described as above.
For experiment [3], the target named is Flrt3 ectodomain (zebrafish). The experiment is described as above.
The target of experiment [4] is Flrt1a ectodomain (zebrafish). Nature of the experiment: SPR; BIAcore, kinetic analysis; same surfaces; three concentrations of Unc5b-Cd4d3+4-6His, flow 100 μl/min, 10 Hz, global fit of first-order decay and of an association model; HBS-EP, 28°C; purification of the Flrt baits not stated.
Experiment [5] has as its target Flrt1b ectodomain (zebrafish). The description is as above.
Experiment [6] concerns the target Flrt3 ectodomain (zebrafish). The description is as above.

The term Kd denotes the concentration at which binding is half-saturated. Low readings indicate tighter binding, high ones weaker binding. What is called koff is the first-order rate constant of dissociation. Lower therefore signals a long-lived complex. In general, kon refers to the rate constant with which the complex forms. For Unc5b-Cd4d3+4-6His (domain or fragment), the values for the Kd in experiment [1], in experiment [2] and in experiment [3] were more than 50 µM, 4 µM and 14 µM, respectively. For the same substance, the koff in experiment [4] was more than 7 s⁻¹; in experiment [5] it was 0.6 s⁻¹. In addition, the association rate constant (kon) in experiment [4], in experiment [5] and in experiment [6] was more than 100000 M⁻¹ s⁻¹ throughout. For the same substance, the t1/2 in experiment [4] was less than 0.1 s; in experiment [5] it was 1.2 s.
